For the test, the target named is α1-subunit of steroid C-25 dehydrogenase 1 (S25DH1), recombinant from Thauera aromatica K172 (Sterolibacterium denitrificans). The experiment in a line: co-purification (ion exchange and dye-affinity chromatography, SDS-PAGE); nontagged subunits coproduced in T. aromatica K172; soluble extract, anaerobic DEAE-Sepharose then Reactive Red 120, active fractions followed; SDS-PAGE, bands of S25DH1 identified by ESI-QTOF-MS of tryptic digests.

In article PMC6016249 one finds stoichiometry N data, which are given here for two substances.

Chain of α1-subunit of steroid C-25 dehydrogenase 1 (S25DH1), recombinant from Thauera aromatica K172 (Sterolibacterium denitrificans) (main, as listed by the source): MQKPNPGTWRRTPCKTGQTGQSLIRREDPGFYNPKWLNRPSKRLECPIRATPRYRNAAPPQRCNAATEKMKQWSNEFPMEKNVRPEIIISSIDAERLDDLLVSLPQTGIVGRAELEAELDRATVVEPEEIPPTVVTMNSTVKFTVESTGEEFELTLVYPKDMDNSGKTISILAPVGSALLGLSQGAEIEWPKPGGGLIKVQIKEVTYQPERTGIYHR

Consider “β3-subunit of steroid C-25 dehydrogenase, recombinant from Thauera aromatica K172 (natural protein)”, for which the stoichiometry N was 1 β3 per α1.
The value for “γ3-subunit of steroid C-25 dehydrogenase, recombinant from Thauera aromatica K172 (natural protein)” was 1 γ3 per α1.

What is called stoichiometry N is a count of units in the complex or per binding partner.
